According to article PMC6286341, “The reduced activity of PP-1α under redox stress condition is a consequence of GSH-mediated transient disulfide formation” (Scientific Reports, 2018):

Target: the molecule itself
Assay: disulfide-linked peptides by LC-MS/MS (cross-over-read search); non-treated bovine SOD1, filter-aided sample preparation, trypsin/chymotrypsin digest

B1: bovine superoxide dismutase 1 (SOD1) (enzyme)
chain: not shown
modifications: N-terminal acetylation (N-terminally acetylated Cys7 peptides)
notes: superoxide dismutase 1, bovine; 3 Cys residues Cys7, Cys56 and Cys145; also called bovine SOD1; source: bought: Sigma Aldrich S7571
Q: Does B1 bind?
A: binds
